Results as given in patent US20240261333A1, “NOVEL TARGETS FOR ENHANCING ANTI-TUMOR IMMUNITY” (THE BROAD INSTITUTE, INC., priority 2021, published 2024).

How the values were obtained:
[1] = target: RPS7 (human) (UniProt P62081); test: co-IP/MS, anti-FLAG IP of N-FLAG B3GNT2 cell lysate
[2] = target: CANX (human) (UniProt P27824); test: as above
[3] = target: CKAP4 (human) (UniProt Q07065); test: as above
[4] = target: RPL12 (human) (UniProt P30050); test: as above
[5] = target: RPL13A (human) (UniProt P40429); test: as above
[6] = target: RPL23A (human) (UniProt P62750); test: as above
[7] = target: FAM3C (human) (UniProt Q92520); test: as above
[8] = target: RPS12 (human) (UniProt P25398); test: as above
[9] = target: ERLIN2 (human) (UniProt O94905); test: as above
[10] = target: UQCRC2 (human) (UniProt P22695); test: as above
[11] = target: HSD17B12 (human) (UniProt Q53GQ0); test: as above
[12] = target: LRP1 (human) (UniProt Q07954); test: as above
[13] = target: TUBB (human) (UniProt P07437); test: as above
[14] = target: DNAJA1 (human) (UniProt P31689); test: as above
[15] = target: TOR1AIP2 (human) (UniProt Q8NFQ8); test: co-IP with control IgG, mass spectrometry; lysate of cells with C-FLAG B3GNT2
[16] = target: RPL26 (human) (UniProt P61254); test: as above
[17] = target: CCT2 (human) (UniProt P78371); test: as above
[18] = target: EIF4A1 (human) (UniProt P60842); test: as above
[19] = target: SEL1L (human) (UniProt Q9UBV2); test: as above
[20] = target: NPM1 (human) (UniProt P06748); test: as above
[21] = target: RARS (human) (UniProt P54136); test: as above
[22] = target: GANAB (human) (UniProt Q14697); test: as above
[23] = target: MARS (human) (UniProt P56192); test: as above
[24] = target: SLC25A5 (human) (UniProt P05141); test: as above
[25] = target: EPRS (human) (UniProt P07814); test: as above
[26] = target: SLC27A4 (human) (UniProt Q6P1M0); test: as above
[27] = target: GALNT2 (human) (UniProt Q10471); test: as above
[28] = target: ZC3HAV1 (human) (UniProt Q7Z2W4); test: as above
[29] = target: ARF4 (human) (UniProt P18085); test: as above
[30] = target: HADHA (human) (UniProt P40939); test: as above
[31] = target: MYO1C (human) (UniProt O00159); test: as above
[32] = target: PIGR (human) (UniProt P01833); test: as above
[33] = target: CD70 (human) (UniProt P32970); test: as above
[34] = target: RPL32 (human) (UniProt P62910); test: as above
[35] = target: GAPDH (human) (UniProt P04406); test: as above
[36] = target: IPO13 (human) (UniProt O94829); test: as above
[37] = target: PSMD4 (human) (UniProt P55036); test: as above

Chain of MYO1C (human) (O00159 other isoform, or with tags, fused parts or gaps limits assumed): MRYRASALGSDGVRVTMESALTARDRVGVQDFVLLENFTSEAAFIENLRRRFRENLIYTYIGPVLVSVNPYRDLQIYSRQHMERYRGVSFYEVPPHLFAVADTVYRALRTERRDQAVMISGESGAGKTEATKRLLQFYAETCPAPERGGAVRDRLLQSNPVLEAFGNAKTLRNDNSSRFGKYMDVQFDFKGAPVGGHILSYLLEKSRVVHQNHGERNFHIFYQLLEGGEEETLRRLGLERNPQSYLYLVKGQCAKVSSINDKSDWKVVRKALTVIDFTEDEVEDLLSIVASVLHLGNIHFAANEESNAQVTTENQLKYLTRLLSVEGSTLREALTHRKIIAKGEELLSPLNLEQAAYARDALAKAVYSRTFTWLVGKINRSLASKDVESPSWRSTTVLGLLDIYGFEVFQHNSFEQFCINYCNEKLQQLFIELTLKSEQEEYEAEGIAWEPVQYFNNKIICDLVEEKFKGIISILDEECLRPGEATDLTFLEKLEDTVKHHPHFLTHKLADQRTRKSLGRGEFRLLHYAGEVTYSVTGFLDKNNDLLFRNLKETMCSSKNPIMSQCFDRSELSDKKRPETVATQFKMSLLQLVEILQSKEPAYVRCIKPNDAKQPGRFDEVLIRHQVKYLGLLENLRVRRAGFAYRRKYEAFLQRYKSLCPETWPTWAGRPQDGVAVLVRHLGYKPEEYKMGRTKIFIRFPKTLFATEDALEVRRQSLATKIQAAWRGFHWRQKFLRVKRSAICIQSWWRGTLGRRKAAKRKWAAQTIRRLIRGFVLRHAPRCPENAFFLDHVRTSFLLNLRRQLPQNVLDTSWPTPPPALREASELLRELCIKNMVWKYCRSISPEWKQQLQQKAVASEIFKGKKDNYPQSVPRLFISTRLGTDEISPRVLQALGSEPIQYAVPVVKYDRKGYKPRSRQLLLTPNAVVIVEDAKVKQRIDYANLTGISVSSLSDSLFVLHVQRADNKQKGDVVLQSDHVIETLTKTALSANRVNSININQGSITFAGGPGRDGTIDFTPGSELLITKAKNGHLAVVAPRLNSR
Chain of FAM3C (human) (Q92520 25-227 limits assumed): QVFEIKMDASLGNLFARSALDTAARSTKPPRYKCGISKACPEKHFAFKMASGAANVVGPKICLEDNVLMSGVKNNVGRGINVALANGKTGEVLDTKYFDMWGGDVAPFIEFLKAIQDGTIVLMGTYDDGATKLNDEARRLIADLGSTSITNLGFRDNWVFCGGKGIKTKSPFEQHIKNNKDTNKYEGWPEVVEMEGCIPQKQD
Chain of HSD17B12 (human) (Q53GQ0 whole entry): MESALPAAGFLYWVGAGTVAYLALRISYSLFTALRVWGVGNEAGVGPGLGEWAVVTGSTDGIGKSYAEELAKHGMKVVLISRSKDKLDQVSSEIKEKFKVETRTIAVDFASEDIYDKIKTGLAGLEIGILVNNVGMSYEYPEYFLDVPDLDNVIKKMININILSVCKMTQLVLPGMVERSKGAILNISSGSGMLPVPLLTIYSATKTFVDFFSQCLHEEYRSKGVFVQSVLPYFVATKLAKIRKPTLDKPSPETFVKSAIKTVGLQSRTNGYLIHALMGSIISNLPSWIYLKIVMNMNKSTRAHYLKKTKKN
Chain of NPM1 (human) (P06748 whole entry): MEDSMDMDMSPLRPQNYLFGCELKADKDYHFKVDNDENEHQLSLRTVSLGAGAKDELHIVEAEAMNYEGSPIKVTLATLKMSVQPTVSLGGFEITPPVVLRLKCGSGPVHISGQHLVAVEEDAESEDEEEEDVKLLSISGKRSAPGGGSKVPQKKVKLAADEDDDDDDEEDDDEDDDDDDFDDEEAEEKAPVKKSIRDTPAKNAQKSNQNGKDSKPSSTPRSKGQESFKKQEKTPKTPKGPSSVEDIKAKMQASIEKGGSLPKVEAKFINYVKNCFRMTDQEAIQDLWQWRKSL
Chain of CANX (human) (P27824 21-592 limits assumed): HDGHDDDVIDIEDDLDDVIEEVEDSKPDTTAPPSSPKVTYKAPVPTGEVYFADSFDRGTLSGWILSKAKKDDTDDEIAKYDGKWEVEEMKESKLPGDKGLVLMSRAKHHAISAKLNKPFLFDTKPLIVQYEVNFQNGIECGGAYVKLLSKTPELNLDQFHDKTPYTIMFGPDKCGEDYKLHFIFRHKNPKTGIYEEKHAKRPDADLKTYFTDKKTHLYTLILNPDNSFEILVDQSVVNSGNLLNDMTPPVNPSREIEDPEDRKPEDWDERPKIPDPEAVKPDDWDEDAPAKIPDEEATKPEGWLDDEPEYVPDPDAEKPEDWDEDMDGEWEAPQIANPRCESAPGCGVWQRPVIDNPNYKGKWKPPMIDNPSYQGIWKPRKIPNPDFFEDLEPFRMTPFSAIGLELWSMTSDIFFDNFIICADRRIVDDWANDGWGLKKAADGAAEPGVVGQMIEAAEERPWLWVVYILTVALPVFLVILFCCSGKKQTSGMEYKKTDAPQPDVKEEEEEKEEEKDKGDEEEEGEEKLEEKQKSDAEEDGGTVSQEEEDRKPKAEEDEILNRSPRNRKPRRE
Chain of TUBB (human) (P07437 whole entry): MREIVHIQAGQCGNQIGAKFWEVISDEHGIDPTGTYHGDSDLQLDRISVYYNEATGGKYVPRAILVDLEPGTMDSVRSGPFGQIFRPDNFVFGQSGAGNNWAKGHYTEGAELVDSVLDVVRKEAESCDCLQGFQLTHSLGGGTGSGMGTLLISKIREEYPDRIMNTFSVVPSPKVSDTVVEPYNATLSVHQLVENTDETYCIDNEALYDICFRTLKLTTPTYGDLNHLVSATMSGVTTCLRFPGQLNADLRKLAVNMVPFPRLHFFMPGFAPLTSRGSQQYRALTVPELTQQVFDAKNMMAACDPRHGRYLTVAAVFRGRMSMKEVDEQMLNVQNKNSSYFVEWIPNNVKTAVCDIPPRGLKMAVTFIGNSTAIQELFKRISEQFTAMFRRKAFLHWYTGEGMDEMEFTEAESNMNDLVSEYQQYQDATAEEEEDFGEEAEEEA
Chain of PIGR (human) (P01833 19-764 limits assumed): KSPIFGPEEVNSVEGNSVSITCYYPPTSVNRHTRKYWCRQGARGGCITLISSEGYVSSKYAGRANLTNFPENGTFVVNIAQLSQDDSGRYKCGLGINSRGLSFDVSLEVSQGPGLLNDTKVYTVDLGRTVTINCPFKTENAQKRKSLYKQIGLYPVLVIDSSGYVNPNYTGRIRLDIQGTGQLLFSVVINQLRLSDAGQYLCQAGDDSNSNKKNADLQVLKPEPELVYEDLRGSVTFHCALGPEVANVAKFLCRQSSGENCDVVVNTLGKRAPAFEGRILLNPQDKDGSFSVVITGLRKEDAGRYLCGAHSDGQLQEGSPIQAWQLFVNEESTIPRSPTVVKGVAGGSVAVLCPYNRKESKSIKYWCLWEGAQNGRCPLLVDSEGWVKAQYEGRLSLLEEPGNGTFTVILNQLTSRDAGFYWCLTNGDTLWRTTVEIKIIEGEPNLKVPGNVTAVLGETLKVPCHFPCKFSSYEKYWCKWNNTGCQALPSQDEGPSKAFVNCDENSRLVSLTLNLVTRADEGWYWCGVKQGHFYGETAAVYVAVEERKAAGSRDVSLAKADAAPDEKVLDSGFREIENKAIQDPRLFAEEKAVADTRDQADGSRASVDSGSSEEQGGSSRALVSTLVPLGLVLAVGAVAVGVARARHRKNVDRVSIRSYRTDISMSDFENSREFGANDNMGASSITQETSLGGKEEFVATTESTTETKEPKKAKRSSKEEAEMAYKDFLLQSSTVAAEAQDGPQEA
Chain of GAPDH (human) (P04406 2-335 limits assumed): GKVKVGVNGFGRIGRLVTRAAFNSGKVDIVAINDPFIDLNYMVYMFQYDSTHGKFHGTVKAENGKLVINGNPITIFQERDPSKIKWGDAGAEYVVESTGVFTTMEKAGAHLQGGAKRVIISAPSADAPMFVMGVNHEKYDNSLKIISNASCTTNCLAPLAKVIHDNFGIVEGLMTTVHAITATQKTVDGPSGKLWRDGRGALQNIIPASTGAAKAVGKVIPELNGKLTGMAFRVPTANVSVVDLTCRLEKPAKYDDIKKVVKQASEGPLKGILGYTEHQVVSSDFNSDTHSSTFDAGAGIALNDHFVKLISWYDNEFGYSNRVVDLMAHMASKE
Chain of SLC25A5 (human) (P05141 2-298 limits assumed): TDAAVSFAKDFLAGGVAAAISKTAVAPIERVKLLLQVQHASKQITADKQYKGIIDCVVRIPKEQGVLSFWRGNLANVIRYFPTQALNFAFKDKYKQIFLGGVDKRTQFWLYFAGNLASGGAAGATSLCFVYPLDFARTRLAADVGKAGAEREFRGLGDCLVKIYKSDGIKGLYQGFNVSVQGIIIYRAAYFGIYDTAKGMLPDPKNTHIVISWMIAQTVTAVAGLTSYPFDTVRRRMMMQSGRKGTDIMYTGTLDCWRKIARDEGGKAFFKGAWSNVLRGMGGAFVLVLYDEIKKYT
Chain of CD70 (human) (P32970 whole entry): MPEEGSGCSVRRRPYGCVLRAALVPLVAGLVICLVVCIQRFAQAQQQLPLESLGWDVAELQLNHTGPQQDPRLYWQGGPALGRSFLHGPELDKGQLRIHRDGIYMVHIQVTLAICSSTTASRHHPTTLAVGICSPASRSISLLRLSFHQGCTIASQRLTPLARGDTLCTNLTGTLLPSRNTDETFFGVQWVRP
Chain of UQCRC2 (human) (P22695 15-453 limits assumed): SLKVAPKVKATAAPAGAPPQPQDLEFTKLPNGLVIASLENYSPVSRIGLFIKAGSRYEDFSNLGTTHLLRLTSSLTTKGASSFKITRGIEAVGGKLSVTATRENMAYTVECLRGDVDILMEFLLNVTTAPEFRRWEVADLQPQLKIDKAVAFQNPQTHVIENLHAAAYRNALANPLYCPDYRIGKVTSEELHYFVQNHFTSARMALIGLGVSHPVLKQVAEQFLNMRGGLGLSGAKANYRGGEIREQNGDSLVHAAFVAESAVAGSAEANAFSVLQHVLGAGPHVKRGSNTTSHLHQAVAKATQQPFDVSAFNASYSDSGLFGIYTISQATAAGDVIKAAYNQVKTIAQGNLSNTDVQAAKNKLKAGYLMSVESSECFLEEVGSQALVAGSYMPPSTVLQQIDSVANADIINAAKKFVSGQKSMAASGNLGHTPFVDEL

Substance: N-terminal FLAG tagged B3GNT2 (from UniProt Q9NY97 1-397) (enzyme)
- co-IP mass spectrometry count [1]: 8
- co-IP mass spectrometry count [2]: 6
- co-IP mass spectrometry count [3]: 2
- co-IP mass spectrometry count [4]: 9
- co-IP mass spectrometry count [5]: 4
- co-IP mass spectrometry count [6]: 6
- co-IP mass spectrometry count [7]: 2
- co-IP mass spectrometry count [8]: 3
- co-IP mass spectrometry count [9]: 8
- co-IP mass spectrometry count [10]: 13
- co-IP mass spectrometry count [11]: 10
- co-IP mass spectrometry count [12]: 2
- co-IP mass spectrometry count [13]: 164
- co-IP mass spectrometry count [14]: 6

Substance: IgG control (Millipore Sigma 12-371) (antibody)
- co-IP mass spectrometry count [15]: 0
- co-IP mass spectrometry count [16]: 4
- co-IP mass spectrometry count [17]: 0
- co-IP mass spectrometry count [18]: 0
- co-IP mass spectrometry count [19]: 0
- co-IP mass spectrometry count [20]: 0
- co-IP mass spectrometry count [21]: 0
- co-IP mass spectrometry count [22]: 0
- co-IP mass spectrometry count [23]: 0
- co-IP mass spectrometry count [24]: 3
- co-IP mass spectrometry count [25]: 0
- co-IP mass spectrometry count [26]: 0
- co-IP mass spectrometry count [27]: 0
- co-IP mass spectrometry count [28]: 0
- co-IP mass spectrometry count [29]: 0
- co-IP mass spectrometry count [30]: 0
- co-IP mass spectrometry count [31]: 0
- co-IP mass spectrometry count [32]: 0
- co-IP mass spectrometry count [33]: 0
- co-IP mass spectrometry count [34]: 0
- co-IP mass spectrometry count [35]: 6
- co-IP mass spectrometry count [36]: 0
- co-IP mass spectrometry count [37]: 0
